Measurements: patent US20180371066A1 (C2N DIAGNOSTICS, published 2018)

How the values were obtained:
human tau [1] = molecular target: T1, human tau (human, UniProt P10636 2-60); assay: competition ELISA on plate-coated human tau against biotinylated HJ8.5; IC50 normalised to chimeric HJ8.5; column C2N Run 1
T1 construct: also called soluble human tau; human tau protein

[2] = molecular target: T2, recombinant human Tau-412 protein (human, UniProt P10636-7 1-412); assay: SPR Biacore T200, mAb captured on Protein A, Tau-412 analyte, 1-to-1 model, chip A11/1
T2 construct: Analyte of the SPR study; also called human tau (1N4R, 412 amino acids)
Method: (§1) Kinetic data was obtained at a flow rate of 40 μL/min to minimize any potential mass transfer effects. Two repeats of the blank (no antigen) and the 2.5 nM concentration of the analyte were programmed into the kinetic run in order to check the stability of both the surface and analyte over the kinetic cycles. For the initial kinetic runs, 2-fold dilutions of Tau-412 from 40 nM to 0.156 nM were run. For kinetic analysis and on subsequent runs, an analyte range of 20 nM to 0.625 nM was selected. This range covered multiple analyte concentrations both above and below the reported KD.
(§2) The association phase was monitored for 500 seconds to allow some of the higher concentrations of analyte to reach steady state. In order to observe a sufficient signal decrease (>10%) during the dissociation phase of the kinetic cycle, dissociation was measured for 1200 seconds. As discussed in Section 5, the Fcs were allowed to stabilize for 600 seconds after each regeneration step. The signal from the reference channel Fc1 was subtracted from that of Fc2, Fc3 and Fc4.
(§3) The kinetic parameters for the interaction of Tau-412 with the 7 mAbs as measured using the Protein A capture system on the Biacore T200 are shown in Table F-2. To correct for differences in the capture level of the antibody between each binding cycle, a local Rₘₐₓ parameter was used in the 1-to-1 binding model. Kinetic analysis was performed in three independent runs using fresh preparations of Tau-412 and antibody. Run 1 and runs 2+3 used different vials of the antigen Tau-412; therefore the reported errors associated with the mean response probably represent variation in preparation of the analyte and differences in assay set-up and run. From run 1 to runs 2+3, the amount of antibody injected was adjusted to try to get closer to the target 300 RU capture levels.

[3] = molecular target: T2, recombinant human Tau-412 protein; assay: SPR Biacore T200, mAb captured on Protein A, Tau-412 analyte, 1-to-1 model, chip A11/3
Method: as §1, §2, §3

PEP_2875825 = molecular target: T3, PEP_2875825; assay: peptide array of 15-mers of human tau probed with the antibody; label LIN.AA (double alanine)
T3 peptide: DQGGYTMHQAAEGDT

PEP_2875827 = molecular target: T4, PEP_2875827; assay: as above
T4 peptide: QGGYTMHQDAAGDTD

human tau [4] = molecular target: T1, human tau; assay: competition ELISA on plate-coated human tau against biotinylated HJ8.5; IC50 normalised to chimeric HJ8.5; column C2N Run 2
PEP_2875808 = molecular target: T5, PEP_2875808; assay: peptide array of 15-mers of human tau probed with the antibody; label LIN
T5 peptide: TYGLGDRKDQGGYTM

PEP_2875822 = molecular target: T6, PEP_2875822; assay: as above
T6 peptide: KDQGGYTMHQDQEGD

PEP_2875824 = molecular target: T7, PEP_2875824; assay: as above
T7 peptide: DQGGYTMHQDQEGDT

PEP_2875804 = molecular target: T8, PEP_2875804; assay: as above
T8 peptide: AGTYGLGDRKDQGGY

PEP_2875816 = molecular target: T9, PEP_2875816; assay: as above
T9 peptide: GDRKDQGGYTMHQDQ

PEP_2875826 = molecular target: T10, PEP_2875826; assay: as above
T10 peptide: QGGYTMHQDQEGDTD

PEP_2875820 = molecular target: T11, PEP_2875820; assay: as above
T11 peptide: RKDQGGYTMHQDQEG

PEP_2875806 = molecular target: T12, PEP_2875806; assay: as above
T12 peptide: GTYGLGDRKDQGGYT

PEP_2875812 = molecular target: T13, PEP_2875812; assay: as above
T13 peptide: GLGDRKDQGGYTMHQ

PEP_2875814 = molecular target: T14, PEP_2875814; assay: as above
T14 peptide: LGDRKDQGGYTMHQD

PEP_2875810 = molecular target: T15, PEP_2875810; assay: as above
T15 peptide: YGLGDRKDQGGYTMH

PEP_2875818 = molecular target: T16, PEP_2875818; assay: as above
T16 peptide: DRKDQGGYTMHQDQE

rhesus monkey tau = molecular target: T17, rhesus monkey tau (rhesus monkey, UniProt P57786 2-60); assay: direct ELISA on 96-well plates coated with tau at varied concentration; OD 650nm
T17 construct: also called rhesus tau
T17 sequence: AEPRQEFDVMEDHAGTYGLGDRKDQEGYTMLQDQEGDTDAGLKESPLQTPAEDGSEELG
Method: FIG. 10 illustrates the binding results for different anti human tau antibodies to either human or rhesus monkey tau. Murine anti human tau antibodies HJ8.5 and HJ8.7 alongside humanized variant VH1/VK2 (also referred to as C₂N-8E12) were tested. […] In order to determine whether these amino acid difference between the two species of tau, impacts the ability of antibodies HJ8.5/C₂N-8E12 to bind the following experiment was performed. Binding of C₂N-8E12, HJ8.5 (murine precursor of C₂N-8E12), and HJ8.7 (murine anti-human tau antibody that binds to an epitope of tau where the human and rhesus amino acid sequence is 100% conserved) to human and rhesus tau by coating 96 well ELISA plates with either human or rhesus tau at various concentrations was measured. […] As expected, HJ8.7 binds to both human and rhesus tau.

T2 sequence (P10636 other isoform, or with tags, fused parts or gaps limits assumed): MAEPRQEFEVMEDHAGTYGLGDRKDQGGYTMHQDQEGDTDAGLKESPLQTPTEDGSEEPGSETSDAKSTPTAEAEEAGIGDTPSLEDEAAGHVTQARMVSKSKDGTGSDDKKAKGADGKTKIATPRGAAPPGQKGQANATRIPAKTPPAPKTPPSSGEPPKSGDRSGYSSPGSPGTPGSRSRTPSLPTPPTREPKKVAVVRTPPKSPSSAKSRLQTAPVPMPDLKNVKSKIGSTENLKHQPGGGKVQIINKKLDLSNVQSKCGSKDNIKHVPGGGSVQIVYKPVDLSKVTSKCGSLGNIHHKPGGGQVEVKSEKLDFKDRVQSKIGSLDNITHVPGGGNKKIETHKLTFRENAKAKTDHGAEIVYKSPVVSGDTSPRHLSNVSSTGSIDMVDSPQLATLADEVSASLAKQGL
T1 sequence (P10636 2-60 limits assumed): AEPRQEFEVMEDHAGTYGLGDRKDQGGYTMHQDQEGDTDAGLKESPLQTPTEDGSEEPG

IC50 (Relative to Chimera) (human tau [1]): 1.34 relative to Chimera | Kd [2]: 2.18 nM | koff [2]: 0.000611 s⁻¹ | kon [2]: 280000 M⁻¹ s⁻¹ | Kd [3]: 1.95 nM | koff [3]: 0.000632 s⁻¹ | kon [3]: 325000 M⁻¹ s⁻¹ | Binding Signal (PEP_2875825): 2580 | Binding Signal (PEP_2875827): 636 | IC50 (Relative to Chimera) (human tau [4]): 0.91 relative to Chimera | Binding Signal (PEP_2875808): 2590 | Binding Signal (PEP_2875822): 2680 | Binding Signal (PEP_2875824): 2650 | Binding Signal (PEP_2875804): 1290 | Binding Signal (PEP_2875816): 2700 | Binding Signal (PEP_2875826): 789 | Binding Signal (PEP_2875820): 2780 | Binding Signal (PEP_2875806): 1710 | Binding Signal (PEP_2875812): 2730 | Binding Signal (PEP_2875814): 2750 | Binding Signal (PEP_2875810): 2670 | Binding Signal (PEP_2875818): 2790 | binding result (rhesus monkey tau): no binding
B1: VH1/VK2 humanized anti-tau antibody (C2N-8E12) (antibody, human IgG4 S228P, kappa, V domains shown)
VH: EVKVVESGGGLVQPGGSMKLSCVVSGFTFSNYWVNWVRQAPGKGLEWVAQIRLKSDNYATHYEESVKGRFTISRDDSKSSVYLQMNNLRAEDSGIYYCTNWEDYWGQGTTVTVSS
VL: DIVLTQSPDSLAVSLGERATISCRASQSVSTSRYSYIHWYQQKPGQPPKLLIKYASNLESGVPSRFSGSGSGTDFTLNIHPLEPEDFATYYCHHSWEIPLTFGQGTKLEIKR
notes: Humanized recombinant IgG4 with S241P hinge mutation, human kappa light chain; also called C2N-8EI2
